# Paper PMC10997623, “Cryo-EM structures of prokaryotic ligand-gated ion channel GLIC provide insights into gating in a lipid environment” (Nature Communications, 2024)
# B1: GLIC, proton-activated prokaryotic ligand-gated ion channel from Gloeobacter violaceus (natural protein)
# chain: QDMVSPPPPIADEPLTVNTGIYLIECYSLDDKAETFKVNAFLSLSWKDRRLAFDPVRSGVRVKTYEPEAIWIPEIRFVNVENARDADVVDISVSPDGTVQYLERFSARVLSPLDFRRYPFDSQTLHIYLIVRSVDTRNIVLAVDLEKVGKNDDVFLTGWDIESFTAVVKPANFALEDRLESKLDYQLRISRQYFSYIPNIILPMLFILFISWTAFWSTSYEANVTLVVSTLIAHIAFNILVETNLPKTPYMTYTGAIIFMIYLFYFVAVIEVTVQHYLKVESQPARAASITRASRIAFPVVFLLANIILAFLFFGF
# notes: GLIC, Gloeobacter violaceus ligand-gated ion channel; expressed as a GLIC-MBP fusion from pET26, MBP removed with HRV-3C protease; Homopentamer; also called GLIC_(aso-pH7.5); GLIC_(pH7.5); source: E. coli C41, purified (DDM, amylose resin, SEC), reconstituted in lipid nanodiscs with MSP1E3D1
# Target: the molecule itself
# Assay: cryo-EM structure; GLIC in MSP1E3D1 lipid nanodiscs (asolectin at pH 7.5; DOPE:POPS:POPC 2:1:1 at pH 7.5, 5.5, 4.0 and 2.5), 150 mM NaCl, 1 mM EDTA; seven maps at 2.6-3.4 Å; homopentamer
protein,measurement,value
B1,stoichiometry N,5
